Test results from PMC4105859, “Characterization of the SAM domain of the PKD-related protein ANKS6 and its interaction with ANKS3” (BMC Structural Biology, 2014).
Where a chain is given by its changes, count along the chain named. Names and notes keep the numbering of the source.

T1: ANKS6-SAM wt (human, UniProt Q68DC2 771-840)
T1 chain: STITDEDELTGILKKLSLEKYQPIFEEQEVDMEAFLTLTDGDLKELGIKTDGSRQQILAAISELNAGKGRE

T2: ANKS3-SAM F53E
T2 chain: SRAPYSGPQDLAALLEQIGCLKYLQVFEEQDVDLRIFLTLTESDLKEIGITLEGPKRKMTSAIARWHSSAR

B1: His6-tagged ANKS6-SAM (domain or fragment, human, UniProt Q68DC2 771-840, looked up)
chain: TITDEDELTGILKKLSLEKYQPIFEEQEVDMEAFLTLTDGDLKELGIKTDGSRQQILAAISELNAGKGRE
notes: ANKS6, human, SAM domain, residues 771-840 of UniProt Q68DC2; pBAD-HisA vector; source: ARI814 cells, purified (HiTrap IMAC, HiTrap Q)
B2: ANKS3-SAM I36E (domain or fragment)
chain: T2 chain with I36E, E53F
B3: negGFP-ANKS3-SAM fusion protein (domain or fragment, human, UniProt Q6ZW76 421-490, looked up)
chain: RAPYSGPQDLAALLEQIGCLKYLQVFEEQDVDLRIFLTLTESDLKEIGITLFGPKRKMTSAIARWHSSAR
notes: ANKS3 (ankyrin repeat and SAM-domain containing protein 3), human, SAM domain, residues 421-490 of UniProt Q6ZW76; source: ARI814 cells, in lysate (native gel); purified (Ni-NTA, HiTrap Q) for TEM
B4: His6-tagged ANKS3-SAM (domain or fragment, human, UniProt Q6ZW76 421-490, looked up)
chain: B3 chain
notes: ANKS3, human, SAM domain, residues 421-490 of UniProt Q6ZW76; pET28 vector; also called ANKS3-SAM (negGFP removed); ANKS3-SAM precipitate; source: Rosetta(DE3) cells, purified (Ni-NTA); precipitated after purification

Assays:
His6-tagged ANKS3-SAM = target: B4; assay: resolubilisation of a precipitate; His6-ANKS3-SAM precipitate (3.2 mg/mL dialysed into 20 mM Tris pH 7, 0.25 M NaCl, 1 mM DTT); His6-ANKS6-SAM at 3.3 mg/mL or buffer alone added at 2:1, 1:1, 1:2; 3 h on ice; settings: both partners purified
ANKS6-SAM wt [1] = target: T1, ANKS6-SAM wt; assay: SPR; ANKS6-SAM wt immobilised on CM5 (EDC/NHS), ANKS3-SAM I36E flowed over; Biacore T100, 21°C, 20 mM HEPES pH 7.5, 1 mM DTT, 0.04% IGEPAL CA-630, 0.15 M NaCl; equilibrium, 1:1 steady-state model, triplicate
ANKS6-SAM wt [2] = target: T1, ANKS6-SAM wt; assay: SPR; value printed in panel; legend gives 249 nM
ANKS3-SAM F53E (human) = assay: SPR; ANKS3-SAM F53E immobilised on CM5 (EDC/NHS), ANKS3-SAM I36E flowed over; Biacore T100, 21°C, 20 mM HEPES pH 7.5, 1 mM DTT, 0.04% IGEPAL CA-630, 0.15 M NaCl; equilibrium, 1:1 steady-state model, triplicate; Kd called an approximation since saturation was not reached
ANKS3-SAM F53E = target: T2, ANKS3-SAM F53E; assay: SPR; settings: chain shown with the change, read off a plot
[3] = target: the molecule itself; assay: negative stain transmission electron microscopy; purified protein or its precipitate on carbon/formvar grids, 1% uranyl acetate, 120 kV

Binder: B1
- binding result (His6-tagged ANKS3-SAM): binds

Binder: B2
- Kd (ANKS6-SAM wt [1]): 0.249 µM
- Kd (ANKS6-SAM wt [2]): 0.27 µM
- Kd (ANKS3-SAM F53E (human)): 5.8 µM
- other: Log (Kd) (ANKS3-SAM F53E; Log [NaCl] est. -0.60): 4
- other: Log (Kd) (ANKS3-SAM F53E; Log [NaCl] est. -0.70): 3.9
- other: Log (Kd) (ANKS3-SAM F53E; Log [NaCl] est. -0.82): 3.8
- other: Log (Kd) (ANKS3-SAM F53E; Log [NaCl] est. -1.0): 3.7

Binder: B3
- binding result [3]: binds

Binder: B4
- binding result [3]: binds
